B1: L7I|R17V|V49I|Q165D|V217M|Q222G|K234H|P283A, Q88HV5 (parent)
chain: MPFQQGLLATPVPAHARHLFFTLQSPEALPAALDALLPQVDGKQLLLGVGAPLAKALGREIPGLRPFPLLDAAVENPSTQHALWLWLRGDERGDLLLRTQALEQALAPALSLADSVDGFLHRGGHDLTGYEDGTENPTDEEAVQAAIAADGSSFAAFQLWKHDLQYFKSLPQADQDNIIGRRLSDNEELDDAPASAHVKRTAQESFEPEAFMVRRSVSWADQRGAGLAFVALGKSFEAFEVQLRRMSGLEDGIIDGLYRFSRPLTGGYYWCPPMSETGVDLSPLLRA

The variants in the data set derive from B1. The note with it: Pseudomonas putida (strain ATCC 47054 / DSM 6125 / CFBP 8728 / NCIMB 11950 / KT2440); pH 7.6; Fluorescence spectroscopy; whole UniProt chain shown.
As to MPFQQGILATPVPAHAVHLFFTLQSPEALPAALDALLPQVDGKQLLLGIGAPLAKALGREIPGLRPFPLLDAAVENPSTQHALWLWLRGDERGDLLLRTQALEQALAPALSLADSVDGFLHRGGHDLTGYEDGTENPTDEEAVQAAIAADGSSFAAFQLWKHDLDYFKSLPQADQDNIIGRRLSDNEELDDAPASAHVKRTAQESFEPEAFMVRRSMSWADGRGAGLAFVALGHSFEAFEVQLRRMSGLEDGIIDGLYRFSRPLTGGYYWCPPMSETGVDLSALLRA [L7I R17V V49I Q165D V217M Q222G K234H P283A], the Tm turned out to be 73 °C. In the case of MPFQQGILATPVPAHAVHLFFTLQSPEALPAALDRLLPQVDGKQLLLGVGAPLAKALGREIPGLRPFPLLDAAVENPSTQHALWLWLRGDERGDLLLRTQALEQALAPALSLADSVDGFLHRGGHDLTGYEDGTENPTDEEAVQAAIAADGSSFAAFQLWKHDLDYFKSLPQADQDNIIGRRLSDNEELDDAPASAHVKRTAQESFEPEAFMVRRSVSWADQRGAGLAFVALGKSFDAFEVQLRRMSGLEDGIIDGLYRFSRPLTGGYYWCPPMSETGVDLSPLLRA [L7I R17V A35R Q165D E237D] it was 75 °C; in that of MPFQQGILATPVPAHAVHLFFTLQSPEDLPAALDALLPQVDGKQLLLGIGAPLAKALGREIPGLRPFPLLDAAVENPSTQHALWLWLRGDDRGDLFHRAQALIQALAPAFVLADEVDGFRYRDGHDLTGYEDGTENPQGDEAVEAAIADDGSSFAAFQLWKHDLQYFKSLPQADQDNIIGRRLSDNEELDDAPASAHVKRTAQESFEPEAFMVRRSVSWADQRGAGLAFVALGKSFEAFEVQLRRMSGLEDGIIDGLYRFSRPLTGGYYWCPPMSETGVDLSPLLRA [L7I R17V A28D V49I E91D L96F L97H T99A E103I L110F S111V S115E L120R H121Y G123D T138Q D139G E140D Q144E A149D], 65 °C; in that of MPFQQGILATPVPAHAVHLFFTLQSPEALPAALDALLPQVDGKQLLLGIGAPLAKALGREIPGLRPFPLLDAAVENPSTQHALWLWLRGDERGDLLLRTQALEQALAPALSLADSVDGFLHRGGHDLTGYEDGTENPTDEEAVQAAIAADGSSFAAFQLWKHDLDYFKSLPQADQDNIIGRRLSDNEELDDAPASAHVKRTAQESFEPEAFMVRRSMSWADQRGAGLAFVALGHSFDAFEVQLRRMSGLEDGIIDGLYRFSRPLTGGYYWCPPMSETGVDLSALLRA [L7I R17V V49I Q165D V217M K234H E237D P283A], 68 °C.

As to MPFQQGILATPVPAHAVHLFFTLQSPEDLPAALDRLLPQVDGKQLLLGIGAPLAKALGREIPGLRPFPLLDAAVENPSTQHALWLWLRGDERGDLLLRTQALEQALAPALSLADSVDGFLHRGGHDLTGYEDGTENPTDEEAVQAAIADDGSSFAAFQLWKHDLQYFKSLPQAEQDNIIGRRLSDNEELDDAPASAHVKRTAQESFEPEAFMVRRSVSWADGRGAGLAFVALGHSFDAFEVQLRRMSGLEDGIIDGLYRFSRPLTGGYYWCPPMSETGVDLSPLLRA [L7I R17V A28D A35R V49I A149D D174E Q222G K234H E237D], the Tm was 69 °C. In the case of MPFQQGLLLTPVPAHARHLFFTLQFPEALPAALDALLPQVDGKQLLLGVGAPLVKALGREIPGLRPFPLLDAAVENPSTQHALWLWLRGDERGELLLRTRALEQALAPAFSLADSVDGFLHRGGHDLTGYEDGTENPTDEEAVQAAIALDGSSFVAFQLWKHDLQYFKSLPQADQDNIIGRRLSDNEELDDAPASAHVKRTAQESFEPEAFMVRRSMPWADGRGAGLAFVALGKSFEAFEVQLRRMSGLEDGIIDGLYRFSRPLTGGYYWCPPMSETGVDLSPLLRA [A9L S25F A54V D94E Q100R L110F A149L A155V V217M S218P Q222G] it was 66 °C; in that of MPFQQGILATPVPAHAVHLFFTLQSPEDLPAALDRLLPQVDGKQLLLGIGAPLAKALGREIPGLRPFPLLDAAVENPSTQHALWLWLRGDDRGDLFHRAQALIQALAPAFVLADEVDGFRYRDGHDLTGYEDGTENPQGDEAVEAAIADDGSSFAAFQLWKHDLDYFKSLPQAEQDNIIGRRLSDNEELDDAPESAHVKRTAQESFEPEAFMVRRSMSWADGRGAGLAFVALGHSFDAFEVQLRRMSGLEDGIIDGLYRFSRPLTGGYYWCPPMSETGVDLSALLRA [L7I R17V A28D A35R V49I E91D L96F L97H T99A E103I L110F S111V S115E L120R H121Y G123D T138Q D139G E140D Q144E A149D Q165D D174E A194E V217M Q222G K234H E237D P283A], 83 °C.

Take MPFQQGLLLTPVPAHARHLFFTLQFPEALPAALDALLPQVDGKQLLLGVGAPLVKALGREIPGLRPFPLLDAAVENPSTQHALWLWLRGDERGDLLLRTQALEQALAPALSLADSVDGFLHRGGHDLTGYEDGTENPTGEEAVQAAIAADGSSFAAFQLWKHDLQYFKALPQAEQDNIIGRRLSDNEELDDAPASAHVKRTAQESFEPEAFMVRRSVSWADQRGAGLAFVALGKSFDAFEVQLRRMSGLEDGIIDGLYRFSRPLTGGYYWCPPMSETGVDLSPLLRA [A9L S25F A54V D139G S169A D174E E237D]: the Tm is 65 °C. With MPFQQGLLLTPVPAHARHLFFTLQSPEALPAALDALLPQVDGKQLLLGVGAPLAKALGREIPGLRPFPLLDAAVENPSTQHALWLWLRGDDRGELLLRTRALEQALAPAFSLADSVDAFRHRGGRDLTGYEDGTENPTGEEAVQAAIALDGSSFVAFQLWKHDLQYFKALPQADQDNIIGRRLSDNEELDDAPASAHVKRTAQESFEPEAFMVRRSMPWADGRGAGLAFVAFGKSFEAFEVQLRRMSGLEDGIIDGLYRFSRPLTGGYYWCPPMSETGLDLSPLLRA [A9L E91D D94E Q100R L110F G118A L120R H125R D139G A149L A155V S169A V217M S218P Q222G L232F V279L] the figure was 69 °C; with MPFQQGLLLTPVPAHARHLFFTLQFPEALPAALDALLPQVDGKQLLLGVGAPLVKALGREIPGLRPFPLLDAAVENPSTQHALWLWLRGDDRGELLLRTQALEQALAPAFSLADSVDAFRHRGGRDLTGYEDGTENPTGEEAVQAAIALDGSSFAAFQLWKHDLQYFKALPQADQDNIIGRRLSDNEELDDAPASAHVKRTAQESFEPEAFMVRRSMPWADGRGAGLAFVAFGKSFDAFEVQLRRMSGLEDGIIDGLYRFSRPLTGGYYWCPPMSETGLDLSPLLRA [A9L S25F A54V E91D D94E L110F G118A L120R H125R D139G A149L S169A V217M S218P Q222G L232F E237D V279L], 70 °C.
